Measured values reported in patent publication US20230190932A1 (Genentech, Inc., priority 2021, published 2023).
Entries after “also recorded” stand apart in the source; their conditions may differ.

Key:
[1] = test system: CD4+ and CD8+ T-cell; conditions: Haslett et al. 1998; Davies et al. 2001; cited from earlier work
[2] = Chen N et al. Clin Pharmacokinet. 2017; cited from earlier work
[3] = test system: patients with relapsed or refractory follicular lymphoma; conditions: in vivo
Description: Patients with r/r FL after at least one prior systemic therapy are eligible to enter the study.
Lenalidomide 20 mg was the dose for all patients.

[4] = test system: R/R NHL patients; conditions: in vivo
[5] = test system: R/R NHL patients; assay: Related study with monotherapy mosunetuzumab (IV): safety summary
[6] = Study CO41942: mosunetuzumab pharmacokinetics in combination with lenalidomide vs popPK simulation of monotherapy (Study GO29781); type: in vivo, human; conditions: 1/2/30 mg IV Q4W; N = 13; preliminary

Molecule: Nc1cccc2c1CN(C1CCC(=O)NC1=O)C2=O (racemic) [lenalidomide, (3RS)-3-(4-Amino-1-oxo-1,3-dihydro-2H-isoindol-2-yl)piperidine-2,6-dione]
- immunomodulatory activity on T cells [1]: enhance CD4+ and CD8+ T-cell co-stimulation, induce T-cell proliferation, and enhance IL-2 and IFN-γ
- route of excretion [2]: primarily excreted in the urine

Molecule: Mosunetuzumab: anti-CD20/anti-CD3 bispecific antibody, INN List 117, CAS Registry Number 1905409-39-3
- AESI by PT: Alanine aminotransferase increased [3]: 1 (6.3%)
- AESI by PT: Aspartate aminotransferase increased [3]: 1 (6.3%)
- AESI by PT: Cytokine release syndrome [3]: 5 (31.3%)
- AESI by PT: Neutropenia [3]: 4 (25.0%)
- AESI by PT: Pleural effusion [3]: 1 (6.3%)
- AESI by PT: Thrombocytopenia [3]: 1 (6.3%)
- AESI: Overall total number of events [3]: 20
- Blood and lymphatic system disorders: Total number of AESI events [3]: 10
- Blood and lymphatic system disorders: Total number of Grade 3-5 events [3]: 9
- Blood and lymphatic system disorders: patients with at least one AESI [3]: 4 (25.0%)
- Blood and lymphatic system disorders: patients with at least one Grade 3-5 AE [3]: 4 (25.0%)
- Grade 3-5 AE: Erythema (Skin and subcutaneous tissue disorders) [3]: 1 (6.3%)
- Grade 3-5 AE: Erythema (listed under Investigations) [3]: 1 (6.3%)
- Grade 3-5 AE: Neutropenia [3]: 4 (25.0%)
- Grade 3-5 AE: Rash maculo-papular (Skin and subcutaneous tissue disorders) [3]: 1 (6.3%)
- Grade 3-5 AE: Rash maculo-papular (listed under Investigations) [3]: 1 (6.3%)
- Immune system disorders: Total number of AESI events [3]: 7
- Immune system disorders: patients with at least one AESI [3]: 5 (31.3%)
- Investigations: Total number of AESI events [3]: 2
- Investigations: Total number of Grade 3-5 events [3]: 2
- Investigations: patients with at least one AESI [3]: 1 (6.3%)
- Investigations: patients with at least one Grade 3-5 AE [3]: 1 (6.3%)
- Respiratory, thoracic, and mediastinal disorders: Total number of AESI events [3]: 1
- Respiratory, thoracic, and mediastinal disorders: patients with at least one AESI [3]: 1 (6.3%)
- Skin and subcutaneous tissue disorders: Total number of Grade 3-5 events [3]: 2
- Skin and subcutaneous tissue disorders: patients with at least one Grade 3-5 AE [3]: 2 (12.5%)
- Total number of patients with at least one AESI [3]: 7 (43.8) %
- Total number of patients with at least one Grade 3-5 AE [3]: 5 (31.3%)
- AESI: Neutropenia/neutrophil count decrease [4]: 56 (26.3) N (%)
- AESI: ALT increased ([5]; N = 213): 22 (10.3) N (%)
- AESI: AST increased ([5]; N = 213): 14 (6.6) N (%)
- AESI: Febrile neutropenia ([5]; N = 213): 6 (2.8) N (%)
- AESI: Thrombocytopenia ([5]; N = 213): 14 (6.6) N (%)
- AESI: Tumor flare ([5]; N = 213): 4 (1.9) N (%)
- AESI: Tumor lysis syndrome ([5]; N = 213): 3 (1.4) N (%)
- AEs leading to dose modification/interruption ([5]; N = 213): 29 (13.6) N (%)
- AEs leading to dose modification/interruption: Mosunetuzumab ([5]; N = 213): 29 (13.6) N (%)
- AEs leading to treatment withdrawal ([5]; N = 213): 7 (3.3) N (%)
- AEs leading to treatment withdrawal: Mosunetuzumab ([5]; N = 213): 7 (3.3) N (%)
- Deaths ([5]; N = 213): 64 (30.0) N (%)
- Grade 3-5 AEs ([5]; N = 213): 141 (66.2) N (%)
- Patients who experienced at least one adverse event (AE) ([5]; N = 213): 207 (97.2) N (%)
- Serious AEs ([5]; N = 213): 107 (50.2) N (%)
- Total number of AEs ([5]; N = 213): 2258
- Treatment-related AEs ([5]; N = 213): 183 (85.9) N (%)
- Treatment-related AEs: Mosunetuzumab ([5]; N = 213): 183 (85.9) N (%)
- Fatal AEs ([5]; N = 213, does not include death due to progressive disease): 5 (2.3) N (%)
- AESI: Cytokine release syndrome ([5]; per ASTCT criteria, N = 213): 79 (37.1) N (%)
- mosunetuzumab PK in combination with lenalidomide compared with monotherapy [6]: similar; also recorded: consistent with what was expected
- observed concentration measurements vs popPK model simulated 5th to 95th prediction intervals [6]: fell generally within
